In patent US20260042850A1:

Molecular target: Insulin
Assay: polyreactivity ELISA on insulin (and dsDNA)

Insulin, sequence (P01308 25-54, chain 1 of 2): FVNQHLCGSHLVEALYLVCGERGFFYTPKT
Insulin, sequence (P01308 90-110, chain 2 of 2): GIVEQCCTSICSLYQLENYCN

Substance	reactivity score
Briakinumab analogue (antibody)	> 15
Bococizumab analogue (antibody)	> 15
